# Experimental data published in US20240409645A1 (DUALYX, published 2024).
# Substitutions are numbered along the chain they refer to.
# B1: FJ1427 P035MP06C09 (VHH)
# VHH: EVQLVESGGGLVQAGGSLRLSCAASGDVFVRYTMAWFRQTPGKEREFVASVTDSGRTTEYVDSVKGRFTVSRDNAKNTVYLQMNNLKPEDTAVYYCAANTDYFQIRSLRANTWGQGTQVTVSS
# notes: Soluble VHH in periplasmic extract (P.E.); also called Clone nr
# B2: FJ1427_P035MP06H03 (VHH)
# VHH: B1 VHH with E1Q, A24V, T40A, V79A, R109D, A110L
# notes: as for B1
# B3: FJ1427_P035MP06E04 (VHH)
# VHH: B1 VHH with E1Q, A24V, T40A, V79A, R109D, A110L
# notes: as for B1
# B4: FJ1427_P035MP06B04 (VHH)
# VHH: B1 VHH with E1Q, A24V, T40A, V79A, R109D, A110L
# notes: as for B1
# B5: FJ1427 P035MP06F04 (VHH)
# VHH: B1 VHH with E1Q, A24V, T40A, N85S
# notes: Soluble VHH in periplasmic extract (P.E.); also called Clone nr; 510
# B6: FJ1427_P035MP06B10 (VHH)
# VHH: B1 VHH with E1Q, F29L, T40A, V79A, V93I, R109D, A110L
# notes: Soluble VHH in periplasmic extract (P.E.); also called Clone nr; 554
# B7: FJ1427_P035MP06C08 (VHH)
# VHH: B1 VHH with E1Q, T40A, V79A, V93I, R109D, A110L
# notes: as for B1
# B8: FJ1427_P035MP06F06 (VHH)
# VHH: B1 VHH with E1Q, T40A, E59D, R109E, A110F
# notes: as for B1
# B9: FJ1427_P035MP06F08 (VHH)
# VHH: B1 VHH with E1Q, T40A, V79A, R109N, A110L
# notes: Soluble VHH in periplasmic extract (P.E.); also called Clone nr; 542
# B10: FJ1427_P035MP06A03 (VHH)
# VHH: B1 VHH with T40A, E59D, R109E, A110F
# notes: as for B1
# B11: FJ1427_P035MP06G02 (VHH)
# VHH: B1 VHH with A23V, A24V, T40A, G42R, S50V, L108V, R109D, A110N, T112A
# notes: as for B1
# B12: FJ1427_P035MP06G10 (VHH)
# VHH: B1 VHH with E1Q, T40A, V79A, R109N, A110L
# notes: as for B1
# B13: FJ1427 P035MP06G09 (VHH)
# VHH: B1 VHH with E1Q, A14P, T40A, E59D, R106K, R109D, A110R
# notes: Soluble VHH in periplasmic extract (P.E.); also called Clone nr; 551
# B14: FJ1427_P035MP06A05 (VHH)
# VHH: B1 VHH with E1Q, A24V, T40A, E59D, D62H, R106K, R109D
# notes: as for B1
# B15: FJ1427_P035MP06D07 (VHH)
# VHH: B1 VHH with E1Q, T40A, V79A, V93I, R109D, A110L
# notes: Soluble VHH in periplasmic extract (P.E.); also called Clone nr; 532
# B16: FJ1427_P035MP06H08 (VHH)
# VHH: B1 VHH with E1Q, T40A, V79A, V93I, R109D, A110L
# notes: as for B1
# B17: FJ1427_P035MP06B05 (VHH)
# VHH: B1 VHH with E1Q, T40A, E59D, R109E, A110F
# notes: as for B1
# B18: FJ1427_P035MP06E08 (VHH)
# VHH: B1 VHH with A24V, T40A, V79A, R109D, A110L
# notes: as for B1
# B19: FJ1427_P035MP06B07 (VHH)
# VHH: B1 VHH with A24V, T40A, V79A, R109D, A110L
# notes: Soluble VHH in periplasmic extract (P.E.); also called Clone nr; 530
# B20: FJ1427_P035MP06H04 (VHH)
# VHH: B1 VHH with A24V, T40A, V79A, R109D, A110L
# notes: as for B1
# B21: FJ1427_P035MP06B09 (VHH)
# VHH: B1 VHH with E1Q, A24V, F29L, T40A, V79A, R109D, A110L
# notes: Soluble VHH in periplasmic extract (P.E.); also called Clone nr; 546
# B22: FJ1427_P035MP06G03 (VHH)
# VHH: B1 VHH with E1Q, A23V, A24V, T40A, S50V, L108V, R109D, A110N, T112A
# notes: Soluble VHH in periplasmic extract (P.E.); also called Clone nr; 503
# B23: FJ1427_P035MP06D05 (VHH)
# VHH: B1 VHH with E1Q, A24V, T40A, N85S
# notes: as for B1
# B24: FJ1427_P035MP06D04 (VHH)
# VHH: B1 VHH with E1Q, V5Q, A23V, A24V, T40A, S50V, L108V, R109D, A110N, T112A
# notes: as for B1
# B25: FJ1427_P035MP06A09 (VHH)
# VHH: B1 VHH with T40A, E59D, R106K, R109D, A110R
# notes: as for B1
# B26: FJ1427 P035MP06D08 (VHH)
# VHH: B1 VHH with E1Q, A24V, T40A, V79A, R109D, A110L, S123L
# notes: Soluble VHH in periplasmic extract (P.E.); also called Clone nr; 540
# B27: FJ1427_P035MP06C05 (VHH)
# VHH: B1 VHH with A23V, A24V, T40A, E44G, S50V, L108V, R109D, A110N, T112A
# notes: as for B1
# B28: FJ1427_P035MP06C04 (VHH)
# VHH: B1 VHH with E1Q, V5Q, T40A, E59D, R109E, A110F
# notes: as for B1
# B29: FJ1427 P035MP06E12 (VHH)
# VHH: B1 VHH with E1Q, T40A, E59D, N85A, R106K, R109D, A110L
# notes: as for B1
# B30: FJ1427_P035MP06E06 (VHH)
# VHH: B1 VHH with S21F, A24V, T40A, N77D, V79A, R109D, A110L
# notes: Soluble VHH in periplasmic extract (P.E.); also called Clone nr; 525
# B31: FJ1427_P035MP06D06 (VHH)
# VHH: B1 VHH with A24V, T40A, V79A, R109D, A110L
# notes: as for B1
# B32: FJ1427_P035MP06G04 (VHH)
# VHH: B1 VHH with E1Q, V5Q, A23V, A24V, T40A, S50V, L108V, R109D, A110N, T112A
# notes: as for B1
# B33: FJ1427_P035MP06G08 (VHH)
# VHH: B1 VHH with E1Q, V5Q, T40A, V79A, R109N, A110L
# notes: Soluble VHH in periplasmic extract (P.E.); also called Clone nr; 543
# B34: FJ1427_P035MP06C06 (VHH)
# VHH: B1 VHH with E1Q, V5Q, A23V, A24V, T40A, S50V, L108V, R109D, A110N, T112A
# notes: Soluble VHH in periplasmic extract (P.E.); also called Clone nr; 523
# B35: FJ1427_P035MP06D03 (VHH)
# VHH: B1 VHH with E1Q, T40A, V79A, V93I, R109D, A110L
# notes: Soluble VHH in periplasmic extract (P.E.); also called Clone nr; 500
# B36: FJ1427 P035MP06E03 (VHH)
# VHH: B1 VHH with T40A, E59D, R106K, R109D, A110R, S123P
# notes: as for B1
# B37: FJ1427_P035MP06F02 (VHH)
# VHH: B1 VHH with E1Q, V5Q, T40A, E59D, N85A, R106K, R109D, A110L
# notes: as for B1
# B38: FJ1427_P035MP06A06 (VHH)
# VHH: QLQLVESGGGLVQAGGSLRLACALSGDVFVRYTMAWFRQAPGKEREFVASVTDSGRTTDYVASVQGRFTVSRDNNKNTVYLQMNSLKPEDTAVYYCAANTDYFQIRSLDRNTWGQGTQVTVSS
# notes: as for B1
# B39: FJ1427_P035MP06H05 (VHH)
# VHH: QVQLVESGGRLVQAGGSLRLSCVVSGDVFVRYTMAWFRQAPGKEREFVAVVTDSGRTTEYVGSVKGRFTVSRDNAKNTVYLQMNNLKPEDTAVYYCAANTDYFQIRSVDNNAWGQGTQVTVSS
# notes: Soluble VHH in periplasmic extract (P.E.); also called Clone nr; 520
# Target: T1, human IL-2Rβ (human, UniProt P14784 27-240, limits assumed)
# T1 construct: Recombinant human IL-2Rβ protein, coated on ELISA plates or immobilized on a CM5 chip; also called hu IL-2R; interleukin 2 receptor β-chain
# T1 sequence: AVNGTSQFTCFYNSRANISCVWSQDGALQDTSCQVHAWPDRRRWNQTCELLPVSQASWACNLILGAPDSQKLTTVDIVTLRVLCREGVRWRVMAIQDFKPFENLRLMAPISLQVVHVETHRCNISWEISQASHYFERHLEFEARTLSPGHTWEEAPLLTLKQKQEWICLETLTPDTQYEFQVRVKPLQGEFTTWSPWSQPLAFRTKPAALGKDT
# Experiment: SPR off-rate ranking of P.E., human IL-2Rβ immobilized
# Description: SPR was performed to determine dissociation rates using Biacore 3000 instrument (GE Healthcare). Briefly, human and mouse IL-2R proteins were immobilized on carboxylmethyl dextran sensor chip (CM5) at approximately 2500 RUs using amine coupling in acetate buffer (GE Healthcare). The VHH-containing P.E. were loaded with a flow rate of 30 uL/min and the off-rates were measured over a 120s period.
row,Binder,koff [s⁻¹]
1,B1,0.00101
2,B2,0.000196
3,B3,0.000198
4,B4,0.000188
5,B5,0.000487
6,B6,0.00223
7,B7,0.000335
8,B8,0.000935
9,B9,0.000274
10,B10,0.000882
11,B11,0.000619
12,B12,0.000261
13,B13,0.000726
14,B14,0.00118
15,B15,0.000346
16,B16,0.000349
17,B17,0.000871
18,B18,0.000267
19,B19,0.000285
20,B20,0.000245

row,Binder,koff [s⁻¹]
1,B21,0.00225
2,B22,0.000586
3,B23,0.000483
4,B24,0.000621
5,B25,0.000947
6,B26,0.000209
7,B27,0.000751
8,B28,0.00084
9,B29,0.000496
10,B30,0.000241
11,B31,0.00029
12,B32,0.000641
13,B33,0.000286
14,B34,0.000698
15,B35,0.00029
16,B36,0.000745
17,B37,0.00037
18,B38,0.000631
19,B39,0.000885

# Target: T1, human IL-2Rβ
# Experiment: P.E. binding ELISA, human IL-2Rβ coated
# Description: In a binding ELISA, human or mouse IL-2Rα, IL-2Rβ and IL-2Rγ proteins were coated directly on maxisorp microtiter plates overnight at 4° C. Free binding sites were blocked using 4% Marvel in PBS for 1 hour. Next, 1:5 dilution of P.E. in 1% Marvel/PBS were added to wells and incubated for 1 hour. […] Binding specificity was determined based on O.D. at 450 nm values compared to negative controls.
row,Binder,OD450 nm (P.E. binding ELISA) [OD450 nm]
1,B1,0.69
2,B2,0.239
3,B3,0.974
4,B4,0.935
5,B5,1.33
6,B6,0.264
7,B7,0.297
8,B8,0.224
9,B9,0.343
10,B10,0.148
11,B11,0.677
12,B12,1
13,B13,0.202
14,B14,0.149
15,B15,0.957
16,B16,0.313
17,B17,0.617
18,B18,0.359
19,B19,1.01
20,B20,1.02

row,Binder,OD450 nm (P.E. binding ELISA) [OD450 nm]
1,B21,0.329
2,B22,0.267
3,B23,0.304
4,B24,0.189
5,B25,0.192
6,B26,0.836
7,B27,0.58
8,B28,0.187
9,B29,0.271
10,B30,1.45
11,B31,0.289
12,B32,0.213
13,B33,0.255
14,B34,0.255
15,B35,1.02
16,B36,0.57
17,B37,0.278
18,B38,0.3
19,B39,0.59
